Measured values: US7122636

Molecular target: recombinant human IL-8, (ser-IL-8)72 (human, UniProt P10145 28-99)
Assay: inhibition of 125I-IL-8 binding to neutrophils

B1: humanized 6G425 F(ab)-9 (humanized 6G4V11 Fab) (Fab, V domains shown)
VH: EVQLVQSGGGLVQPGGSLRLSCAASGYSFSSHYMHWVRQAPGKGLEWVGYIDPSNGETTYNQKFKGRFTLSRDNSKNTAYLQMNSLRAEDTAVYYCARGDYRYNGDWFFDVWGQGTLVTVSS
VL: DIQMTQSPSSLSASVGDRVTITCRSSQSLVHGIGNTYLHWYQQKPGKAPKLLIYKVSNRFSGVPSRFSGSGSGTDFTLTISSLQPEDFATYYCSQSTHVPLTFGQGTKVEIKR
IC50: 4.9 nM
